Measured values published in IntAct's records for PubMed 16461910.

Tests used:
[1] = target: dnaa_bacsu dnaA (UniProt P05648)
[2] = target: dpo3b_bacsu dnaN (UniProt P05649)
[3] = target: tlpa_bacsu tlpA (UniProt P39216)
[4] = target: acub_bacsu acuB (UniProt P39066)
acub_bacsu acuB, sequence (P39066 whole entry): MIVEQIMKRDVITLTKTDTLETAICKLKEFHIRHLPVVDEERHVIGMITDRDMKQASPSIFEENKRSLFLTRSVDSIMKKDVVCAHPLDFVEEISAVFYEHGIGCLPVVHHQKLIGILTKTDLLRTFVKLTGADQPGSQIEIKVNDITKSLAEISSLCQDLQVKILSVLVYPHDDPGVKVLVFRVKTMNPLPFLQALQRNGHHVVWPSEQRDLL

dnaa_bacsu dnaA, sequence (P05648 whole entry): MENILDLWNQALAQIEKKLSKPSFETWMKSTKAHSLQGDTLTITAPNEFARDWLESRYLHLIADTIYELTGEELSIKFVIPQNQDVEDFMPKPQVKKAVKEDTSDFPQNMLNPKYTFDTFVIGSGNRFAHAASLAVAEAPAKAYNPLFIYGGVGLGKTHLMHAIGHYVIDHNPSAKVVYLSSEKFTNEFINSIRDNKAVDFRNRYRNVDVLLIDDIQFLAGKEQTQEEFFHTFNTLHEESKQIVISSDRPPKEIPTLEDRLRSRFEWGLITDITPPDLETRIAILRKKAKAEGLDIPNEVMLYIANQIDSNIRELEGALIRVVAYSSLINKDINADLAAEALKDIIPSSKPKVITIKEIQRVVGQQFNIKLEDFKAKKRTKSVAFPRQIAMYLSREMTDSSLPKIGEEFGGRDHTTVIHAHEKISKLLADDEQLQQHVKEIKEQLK
dpo3b_bacsu dnaN, sequence (P05649 whole entry): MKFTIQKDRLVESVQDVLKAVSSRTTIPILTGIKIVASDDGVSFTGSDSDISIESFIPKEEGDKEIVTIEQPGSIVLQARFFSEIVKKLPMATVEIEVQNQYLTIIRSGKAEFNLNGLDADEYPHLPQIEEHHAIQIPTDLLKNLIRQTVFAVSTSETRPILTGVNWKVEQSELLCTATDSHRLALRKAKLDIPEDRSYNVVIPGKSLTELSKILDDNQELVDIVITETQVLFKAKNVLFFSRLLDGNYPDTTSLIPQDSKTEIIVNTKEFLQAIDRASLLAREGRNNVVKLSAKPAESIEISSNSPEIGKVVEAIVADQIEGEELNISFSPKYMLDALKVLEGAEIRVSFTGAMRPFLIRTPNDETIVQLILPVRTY
tlpa_bacsu tlpA, sequence (P39216 whole entry): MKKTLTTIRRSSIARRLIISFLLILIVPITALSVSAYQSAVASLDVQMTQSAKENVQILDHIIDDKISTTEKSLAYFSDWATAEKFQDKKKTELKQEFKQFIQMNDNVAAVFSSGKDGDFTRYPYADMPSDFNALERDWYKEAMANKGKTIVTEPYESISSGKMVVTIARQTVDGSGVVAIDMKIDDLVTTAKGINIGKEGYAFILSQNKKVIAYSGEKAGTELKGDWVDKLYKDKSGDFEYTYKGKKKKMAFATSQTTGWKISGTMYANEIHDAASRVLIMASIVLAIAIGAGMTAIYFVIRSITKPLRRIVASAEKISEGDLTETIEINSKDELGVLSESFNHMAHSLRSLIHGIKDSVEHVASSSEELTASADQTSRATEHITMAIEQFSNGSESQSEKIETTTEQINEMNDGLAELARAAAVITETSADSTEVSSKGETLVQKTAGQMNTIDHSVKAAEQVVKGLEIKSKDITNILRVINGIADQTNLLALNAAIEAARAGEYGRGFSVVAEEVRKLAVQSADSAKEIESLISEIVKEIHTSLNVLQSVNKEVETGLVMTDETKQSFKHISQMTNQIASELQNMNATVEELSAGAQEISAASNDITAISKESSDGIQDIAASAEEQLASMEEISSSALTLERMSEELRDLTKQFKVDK

Row | effect of a mutation on the interaction [1] | effect of a mutation on the interaction [2] | effect of a mutation on the interaction [3] | effect of a mutation on the interaction [4] | Substance
1 | disrupting interaction strength |  |  |  | Replication initiation control protein YabA (Bacillus subtilis), P37542 L86P
2 | disrupting interaction strength | disrupting interaction strength | disrupting interaction strength | disrupting interaction strength | Replication initiation control protein YabA (Bacillus subtilis), P37542 L27A
3 |  | disrupting interaction strength |  |  | Replication initiation control protein YabA (Bacillus subtilis), P37542 V99A
4 | disrupting interaction strength |  |  |  | Replication initiation control protein YabA (Bacillus subtilis), P37542 N85D
5 |  | disrupting interaction strength |  |  | Replication initiation control protein YabA (Bacillus subtilis), P37542 L110P
